In patent publication US20200262916A1, “Mammalian Atg8 Proteins Control Autolysosomal Biogenesis Through SNARES” (STC. UNM, priority 2019, published 2020):

Legend:
[1] = tested on: HeLa cells stably expressing YFP-Parkin; assay: Parkin-dependent mitophagy, HCM quantification of mitochondrial DNA (mtDNA); assay type: cell-based; conditions: wild type HeLa-YFP-Parkin cells; CCCP 10 μM or oligomycin A 5 μM and antimycin A 10 μM; 16 hours
Huh7 cells = assay: Pexophagy, Western blot of peroxisomal proteins PEX14 and PMP70; assay type: cell-based; conditions: H2O2 0.4 mM, over a period of 6 hours
[2] = molecular target: T1, VPS33A (endogenous, a component of the HOPS complex) (UniProt Q96AX1 1-596); assay: endogenous Co-IP with mouse anti-Stx6 antibody, HeLa cells
T1 sequence (looked up): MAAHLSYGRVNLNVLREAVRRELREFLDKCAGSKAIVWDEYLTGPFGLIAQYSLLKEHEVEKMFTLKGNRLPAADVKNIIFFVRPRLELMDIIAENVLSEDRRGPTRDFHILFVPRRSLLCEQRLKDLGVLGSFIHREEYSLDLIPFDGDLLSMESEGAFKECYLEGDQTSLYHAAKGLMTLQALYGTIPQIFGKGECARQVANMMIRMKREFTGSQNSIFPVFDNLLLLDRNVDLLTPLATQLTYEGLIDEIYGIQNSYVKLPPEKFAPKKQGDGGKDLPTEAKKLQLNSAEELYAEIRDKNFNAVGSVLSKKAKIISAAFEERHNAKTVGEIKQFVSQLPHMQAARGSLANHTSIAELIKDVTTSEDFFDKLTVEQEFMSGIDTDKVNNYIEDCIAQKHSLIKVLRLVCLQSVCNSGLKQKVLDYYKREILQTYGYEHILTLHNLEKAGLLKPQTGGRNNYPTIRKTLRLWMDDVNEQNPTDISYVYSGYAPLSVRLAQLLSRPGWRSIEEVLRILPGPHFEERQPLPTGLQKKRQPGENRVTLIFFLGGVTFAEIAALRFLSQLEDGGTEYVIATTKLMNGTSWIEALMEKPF

VPS41 (endogenous) = molecular target: T2, VPS41 (endogenous) (UniProt P49754 1-854, limits assumed); assay: as above
T2 construct: also called HOPS component VPS41
T2 sequence (looked up): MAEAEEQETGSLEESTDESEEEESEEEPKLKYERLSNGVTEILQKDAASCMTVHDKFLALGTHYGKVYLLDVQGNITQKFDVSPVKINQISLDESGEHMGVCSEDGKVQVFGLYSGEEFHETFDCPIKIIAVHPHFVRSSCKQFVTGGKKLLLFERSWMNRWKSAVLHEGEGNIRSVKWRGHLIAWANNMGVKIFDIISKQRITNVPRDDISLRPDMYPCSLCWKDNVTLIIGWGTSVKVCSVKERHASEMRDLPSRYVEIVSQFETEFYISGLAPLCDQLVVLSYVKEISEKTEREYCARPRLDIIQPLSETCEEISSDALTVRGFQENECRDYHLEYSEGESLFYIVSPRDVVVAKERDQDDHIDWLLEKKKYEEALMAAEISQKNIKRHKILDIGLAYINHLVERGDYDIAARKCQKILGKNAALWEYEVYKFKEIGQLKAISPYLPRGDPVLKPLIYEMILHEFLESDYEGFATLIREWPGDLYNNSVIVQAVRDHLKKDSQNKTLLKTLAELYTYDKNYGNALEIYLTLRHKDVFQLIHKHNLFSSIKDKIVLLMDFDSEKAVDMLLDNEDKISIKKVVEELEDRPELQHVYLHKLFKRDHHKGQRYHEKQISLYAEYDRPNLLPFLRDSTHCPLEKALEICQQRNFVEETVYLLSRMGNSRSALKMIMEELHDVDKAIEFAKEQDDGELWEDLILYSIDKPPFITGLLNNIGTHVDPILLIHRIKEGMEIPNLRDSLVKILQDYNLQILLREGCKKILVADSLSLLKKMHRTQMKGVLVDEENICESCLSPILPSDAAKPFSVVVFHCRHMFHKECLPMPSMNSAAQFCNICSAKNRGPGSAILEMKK

N#CC(C#N)=NNc1cccc(Cl)c1 [CCCP]
mtDNA as a measure of cellular mitochondrial content [1]: major reduction

OO [H2O2]
levels of peroxisomal constituents PEX14 and PMP70 (Huh7 cells): decrease

B1: Vti1a (endogenous, in HeLa and U2OS cells) (other, UniProt Q96AJ9 1-217, looked up)
chain: MSSDFEGYEQDFAVLTAEITSKIARVPRLPPDEKKQMVANVEKQLEEAKELLEQMDLEVREIPPQSRGMYSNRMRSYKQEMGKLETDFKRSRIAYSDEVRNELLGDDGNSSENQRAHLLDNTERLERSSRRLEAGYQIAVETEQIGQEMLENLSHDREKIQRARERLRETDANLGKSSRILTGMLRRIIQNRILLVILGIIVVITILMAITFSVRRH
binding result [2]: no binding

B2: Stx6 (endogenous, precipitated with mouse anti-Stx6 antibody from HeLa cells) (other, UniProt O43752 2-255, looked up)
chain: SMEDPFFVVKGEVQKAVNTAQGLFQRWTELLQDPSTATREEIDWTTNELRNNLRSIEWDLEDLDETISIVEANPRKFNLDATELSIRKAFITSTRQVVRDMKDQMSTSSVQALAERKNRQALLGDSGSQNWSTGTTDKYGRLDRELQRANSHFIEEQQAQQQLIVEQQDEQLELVSGSIGVLKNMSQRIGGELEEQAVMLEDFSHELESTQSRLDNVMKKLAKVSHMTSDRRQWCAIAILFAVLLVVLILFLVL
notes: also called syntaxin 6
binding result [2]: no binding | binding result (VPS41 (endogenous)): binds
